The text below walks through data of patent US20260049138A1 (Chugai, published 2026).

The target of this experiment is T1, CD3ε homodimer protein (human, UniProt P07766 23-126, limits assumed, sulfo-tag or biotin label in the ECL assays; amine-coupled to the chip in SPR).
T1 construct: also called human CD3ε homodimer protein; CD3 (CD3ε)
Put plainly: SPR Biacore T200; CD3ε homodimer on CM4 chip.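 Also: Single-residue variant antibodies injected as analyte over CD3ε homodimer immobilized by amine coupling, run at 25 °C in HBS-EP+ buffer.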 A general note: Surface plasmon resonance follows binding to a sensor surface in real time, without labels.

T1 sequence (P07766 23-126 limits assumed): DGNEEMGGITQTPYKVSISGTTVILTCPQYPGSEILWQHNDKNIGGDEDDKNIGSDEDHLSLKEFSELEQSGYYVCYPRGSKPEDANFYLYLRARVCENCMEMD

B1: CE115HA000 A52aG one-arm antibody (antibody, human IgG1, kappa, L234A L235A, N297A, name in Kabat numbering)
heavy: QVQLVESGGGVVQPGRSLRLSCAASGFTFSNAWMHWVRQAPGKGLEWVAQIKGKSNNYATYYAESVKGRFTISRDDSKNSLYLQMNSLKTEDTAVYYCRYVHYGAYYGVDAWGQGTTVTVSSASTKGPSVFPLAPSSKSTSGGTAALGCLVKDYFPEPVTVSWNSGALTSGVHTFPAVLQSSGLYSLSSVVTVPSSSLGTQTYICNVNHKPSNTKVDKKVEPKSCDKTHTCPPCPAPEAAGGPSVFLFPPKPKDTLMISRTPEVTCVVVDVSHEDPEVKFNWYVDGVEVHNAKTKPREEQYASTYRVVSVLTVLHQDWLNGKEYKCKVSNKALPAPIEKTISKAKGQPREPQVYTLPPSRCELTKNQVSLSCAVKGFYPSDIAVEWESNGQPENNYKTTPPVLDSDGSFFLVSKLTVDKSRWQQGNVFSCSVMHEALHNHYTQKSLSLSPDYKDDDDK
chain: EPKSSDKTHTCPPCPAPELLGGPSVFLFPPKPKDTLMISRTPEVTCVVVDVSHEDPEVKFNWYVDGVEVHNAKTKPREEQYNSTYRVVSVLTVLHQDWLNGKEYKCKVSNKALPAPIEKTISKAKGQPREPQVCTLPPSRDELTKNQVSLWCLVKGFYPSDIAVEWESNGQPENNYKTTPPVLDSDGSFFLYSKLTVDKSRWQQGNVFSCSVMHEALHNRYTQKSLSLSP
light: DIVMTQSPLSLPVTPGEPASISCRSSQSLVHSNRNTYLHWYQQKPGQAPRLLIYKVSNRFSGVPDRFSGSGSGTDFTLKISRVEAEDVGVYYCGQGTQVPYTFGQGTKLEIKRTVAAPSVFIFPPSDEQLKSGTASVVCLLNNFYPREAKVQWKVDNALQSGNSQESVTEQDSKDSTYSLSSTLTLSKADYEKHKVYACEVTHQGLSSPVTKSFNRGEC
As to B1, the “ratio of amounts bound Z=Y/X (altered form / CE115HA000)” value is 0.81.

B2: CE115HA000 A52aP one-arm antibody (antibody, human IgG1, kappa, L234A L235A, N297A, name in Kabat numbering)
heavy: QVQLVESGGGVVQPGRSLRLSCAASGFTFSNAWMHWVRQAPGKGLEWVAQIKPKSNNYATYYAESVKGRFTISRDDSKNSLYLQMNSLKTEDTAVYYCRYVHYGAYYGVDAWGQGTTVTVSSASTKGPSVFPLAPSSKSTSGGTAALGCLVKDYFPEPVTVSWNSGALTSGVHTFPAVLQSSGLYSLSSVVTVPSSSLGTQTYICNVNHKPSNTKVDKKVEPKSCDKTHTCPPCPAPEAAGGPSVFLFPPKPKDTLMISRTPEVTCVVVDVSHEDPEVKFNWYVDGVEVHNAKTKPREEQYASTYRVVSVLTVLHQDWLNGKEYKCKVSNKALPAPIEKTISKAKGQPREPQVYTLPPSRCELTKNQVSLSCAVKGFYPSDIAVEWESNGQPENNYKTTPPVLDSDGSFFLVSKLTVDKSRWQQGNVFSCSVMHEALHNHYTQKSLSLSPDYKDDDDK
chain: EPKSSDKTHTCPPCPAPELLGGPSVFLFPPKPKDTLMISRTPEVTCVVVDVSHEDPEVKFNWYVDGVEVHNAKTKPREEQYNSTYRVVSVLTVLHQDWLNGKEYKCKVSNKALPAPIEKTISKAKGQPREPQVCTLPPSRDELTKNQVSLWCLVKGFYPSDIAVEWESNGQPENNYKTTPPVLDSDGSFFLYSKLTVDKSRWQQGNVFSCSVMHEALHNRYTQKSLSLSP
light: DIVMTQSPLSLPVTPGEPASISCRSSQSLVHSNRNTYLHWYQQKPGQAPRLLIYKVSNRFSGVPDRFSGSGSGTDFTLKISRVEAEDVGVYYCGQGTQVPYTFGQGTKLEIKRTVAAPSVFIFPPSDEQLKSGTASVVCLLNNFYPREAKVQWKVDNALQSGNSQESVTEQDSKDSTYSLSSTLTLSKADYEKHKVYACEVTHQGLSSPVTKSFNRGEC
As to B2, the “ratio of amounts bound Z=Y/X (altered form / CE115HA000)” value is 0.15.
